In patent US20130039920A1 (SHANGHAI CANCER INSTITUTE, published 2013):
Values joined by “and” are separate entries in the source; they are usually repeats but may differ in a detail not shown here. Equal values may be shown once.

Assays:
[1] = molecular target: T1, recombinant EGFRvIII extracellular region protein (UniProt P00533 25-645); test: non-competitive ELISA on coated rEGFRvIIIex; average of six K values from paired coating concentrations
T1 construct: extracellular domain; also called rEGFRvIIIex; rEGFRvIII
Procedure: (§1) After the coated buffer was removed, the plates were washed with PBS one time followed by adding with 350 μl of PBS containing 5% of skimmed milk powder and incubating overnight. Then the plates were washed with PBS twice. […] The plates were incubated with antibodies at 37° C. for 1 hour and washed thrice with PBS. Then the plates were added with 100 μL of HRP-labeled goat anti-mouse secondary antibodies, incubated at 37° C. for 1 hour and washed 5 times with PBS followed by incubation with ABTS substrate for 15 min. The absorbance value was determined at 405 nm with a microplate reader. The binding curve was drawn according to the absorbance values to obtain the antibody concentration at half-maximal OD value (OD50%).
(§2) The concentrations are substituted into the formula K=(n−1)/2 (nAb′−Ab) to calculate the affinity constant, wherein, Ab′ and Ab represent the OD50% antibody concentration (mol/L) when the concentrations of antigen is Ag′ and Ag, n=Ag/Ag′. Six K values were obtained by paired comparison and averaged to obtain the final value.

[2] = molecular target: T1, recombinant EGFRvIII extracellular …; test: non-competitive ELISA, rEGFRvIIIex coated at 1.25 mg/L; antibody concentration at half-maximal OD
Procedure: as §1

[3] = molecular target: T1, recombinant EGFRvIII extracellular …; test: non-competitive ELISA, rEGFRvIIIex coated at 2.5 mg/L; antibody concentration at half-maximal OD
Procedure: as §1

[4] = molecular target: T1, recombinant EGFRvIII extracellular …; test: non-competitive ELISA, rEGFRvIIIex coated at 5.0 mg/L; antibody concentration at half-maximal OD
Procedure: as §1

[5] = molecular target: T1, recombinant EGFRvIII extracellular …; test: non-competitive ELISA, rEGFRvIIIex coated at 0.625 mg/L; antibody concentration at half-maximal OD
Procedure: as §1

[6] = molecular target: T1, recombinant EGFRvIII extracellular …; test: non-competitive ELISA on coated rEGFRvIIIex; derived from the affinity constant
Procedure: as §1, §2

B1: monoclonal antibody 12H23 (antibody, V domains shown)
VH: DVQLQESGPGLVKPSQSLSLTCTVTAYSVTSDYAWNWIRQFPGNKLEWMGYISYSGTTRYNPSLKSRISITRDTSKNQFFLQLNSMTAEDTATYYCSRQGRGFPYWGQGTLVTVSA
VL: DILMTQSPSSMSVSLGDTVSITCHASQDINSNIGWLQQKPGKSFKGLIYHGTNLEDGVPSRFSGSGSGADYSLTISSLESEDFADYYCVQYAQFPWTFGGGTKLEIKR
notes: also called murine monoclonal antibody 12H23; clone 12H23
Ka [1]: 3.8e+10 M⁻¹
EC50 [2]: 0.0023 µg/mL and 0.015 nM
EC50 [3]: 0.0025 µg/mL and 0.017 nM
EC50 [4]: 0.003 µg/mL and 0.02 nM
EC50 [5]: 2 ng/mL
Kd [6]: 0.026 nM
